Test [1] concerns the target human PD-L1 His (human). Nature of the test: SPR, 37C. For orientation: In SPR one partner is held on a chip, and binding of the other changes the refractive index at the surface.
Test [2] concerns the target human PD-L1 His (human). Nature of the test: ELISA, competition with PD-1. (In an ELISA, binding on a coated surface is turned into a signal by an enzyme label.)
In test [3] the target is cyno PD-L1 FLAG (cynomolgus). Kind of test: SPR, 37C.
Test [4] deals with human PD-L1 His (human). Nature of the test: SPR, 25C.
Test [5] deals with human PD-L1 His (human). Kind of test: SPR, 25C. The source holds these as a separate data set.
Test [6] has as its target T1, TIGIT (human, UniProt Q495A1).
T1 chain: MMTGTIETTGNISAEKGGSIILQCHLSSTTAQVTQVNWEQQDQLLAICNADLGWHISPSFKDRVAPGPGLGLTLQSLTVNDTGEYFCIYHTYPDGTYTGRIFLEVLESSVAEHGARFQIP
Nature of the test: SPR.

Test [7] deals with human PD-L1 His (human). Kind of test: SPR.
The target of test [8] is human PD-L1 His (human). Nature of the test: ELISA, competition with CD80.
For test [9], the target named is human PD-L1 His (human). Kind of test: ELISA, competition with PD-1. The source holds these as a separate data set.

Changes are numbered by the printed parent chain.

Sequence of cyno PD-L1 FLAG (cynomolgus) (chain, as listed by the source): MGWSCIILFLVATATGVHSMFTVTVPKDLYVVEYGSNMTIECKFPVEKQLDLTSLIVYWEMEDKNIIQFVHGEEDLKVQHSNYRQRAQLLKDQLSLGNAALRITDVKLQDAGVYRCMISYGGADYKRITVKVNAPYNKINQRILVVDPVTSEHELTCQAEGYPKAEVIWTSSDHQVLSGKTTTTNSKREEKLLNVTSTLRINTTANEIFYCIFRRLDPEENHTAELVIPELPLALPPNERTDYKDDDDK

B1: 84G09 (antibody, V domains shown)
VH: EVQLVESGGGLVQPGRSLRLSCAASGFTFDDYAMHWVRQTPGKGLEWVSGISWKSNIIGYADSVKGRFTISRDNAKNSLYLQMNSLRAEDTALYYCARDITGSGSYGWFDPWGQGTLVTVSS
VL: DIQMTQSPSSLSASVGDRVTITCRASQSISSYLNWYQQKPGKAPKPLIYVASSLQSGVPSSFSGSGSGTDFTLTISSLQPEDFATYYCQQSYSNPITFGQGTRLEIK
Take B1: the Kd in [1] is 0.43 nM; in [3] it was 0.52 nM. Moreover, the IC50 in test [2] is 7.9 nM.

B2: 1D05 VH V to A (antibody, V domains shown)
VH: EVQLVESGGGLVQPGRSLRLSCAASGFTFDDYAMHWVRQAPGKGLEWVSGISWIRTGIGYADSVKGRFTIFRDNAKNSLYLQMNSLRAEDTALYYCAKDMKGSGTYGGWFDTWGQGTLVTVSS
VL: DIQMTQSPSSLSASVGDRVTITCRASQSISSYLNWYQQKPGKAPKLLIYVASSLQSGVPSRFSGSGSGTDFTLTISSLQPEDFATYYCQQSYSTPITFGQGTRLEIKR
In turn, B2 registered a dissociation constant Kd in test [4] of 0.33 nM.

B3: 1D05 IC64 (D5-7) (antibody)
chain 1: B2 VH with A40V
chain 2: not shown
Consider B3, for which the equilibrium dissociation constant (Kd) in test [5] turned out to be 0.214 nM.

B4: 1D05 (antibody)
chain 1: B2 VH with A40V
chain 2: not shown
Regarding B4, the binding result in test [6] was “no binding”. Moreover, the Kd was found to be 0.42 nM in test [1], 0.43 nM in [3] and 0.35 nM in [7].

B5: 1D05 VH V to A and F to S (antibody, V domains shown)
VH: B2 VH with F71S
VL: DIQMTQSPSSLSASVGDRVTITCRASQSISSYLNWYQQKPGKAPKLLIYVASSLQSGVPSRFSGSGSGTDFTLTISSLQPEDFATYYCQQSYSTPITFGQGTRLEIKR
Turning to B5, in test [4], the affinity, expressed as Kd, was 0.23 nM.

B6: 1D05 IC46 (D1-9) (antibody)
chain 1: B2 VH with A40V
chain 2: not shown
With B6, the 50% inhibitory concentration (IC50) amounted to 1.07 nM in test [8] and 1.75 nM in test [9]. For the same molecule, in test [5], the dissociation constant Kd turned out to be 0.195 nM.

B7: 1D05 VH V to A, VL V to A (antibody, V domains shown)
VH: B2 VH
VL: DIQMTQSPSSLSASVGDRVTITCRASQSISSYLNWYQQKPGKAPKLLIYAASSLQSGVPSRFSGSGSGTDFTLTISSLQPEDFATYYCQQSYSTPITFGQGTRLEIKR
The molecule B7 showed an equilibrium dissociation constant (Kd) in [4] of 2.8 nM.

B8: 1D05 IC45 (D5-9) (antibody)
chain 1: B2 VH with A40V
chain 2: not shown
The molecule B8 had a Kd in [5] of 0.203 nM.

B9: Bispecific 2, PD-L1 arm (antibody)
chain 1: B2 VH with A40V
chain 2: not shown
Turning to B9, the equilibrium dissociation constant (Kd) in [7] was 0.21 nM. In other words, the sub-nanomolar range.

B10: Bispecific 1, PD-L1 arm (antibody)
chain 1: B2 VH with A40V
chain 2: not shown
With B10, the equilibrium dissociation constant (Kd) in test [7] is 0.27 nM.

B11: 1D05 D9-7 (antibody)
chain 1: B2 VH with A40V
chain 2: not shown
The molecule B11 yielded a half-maximal inhibitory concentration (IC50) in test [8] of 0.7 nM. The dissociation constant (Kd) in test [5] came to 0.2 nM.

B12: 1D05 VH F to S (antibody, V domains shown)
VH: B2 VH with A40V, F71S
VL: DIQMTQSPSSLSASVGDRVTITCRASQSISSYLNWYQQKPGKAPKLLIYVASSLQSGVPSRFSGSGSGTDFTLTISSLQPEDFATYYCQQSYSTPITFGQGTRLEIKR
Regarding B12, the dissociation constant Kd in test [4] was determined as 0.23 nM.

By Kd is commonly meant the free concentration of one partner at which half of the binding sites on the other are occupied at equilibrium, for simple one-to-one binding. The low end stands for higher affinity, the high end for lower affinity. A word on the IC50: it is the concentration needed to halve the response being measured.

(Values after patent US9567399 (dated 2017).)
